The supplement of paper PMC10724198

Key:
Saccharomyces cerevisiae [1] = test: protein stability index of tFT-peptide fusion in wild type (PSI (0-1 scale)); higher = more stable (slower turnover); conditions: genetic background: wild type
Description: (§1)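 MPS profiling in S. cerevisiae of two library types built from selected 12-aa C-degron peptides (IN1, IN2, LN1, LN3, VN2, R1-R5, W1-W3, Atg1 and Rpa12 C-termini): saturation mutagenesis libraries and C-terminal +1 capping libraries (13 aa). Each peptide is fused to the C-terminus of a sfGFP-mCherry timer, after a GGGS linker. Cells are FACS-sorted into 8 mCherry/sfGFP bins and sequenced. PSI runs from 0 (unstable) to 1 (stable), measured once in wild type and in the das1Δ or doa10Δ background.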

Saccharomyces cerevisiae [2] = test: protein stability index of tFT-peptide fusion in deletion strain of DAS1 (PSI (0-1 scale)); higher = more stable (slower turnover)
Description: as §1
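Wherever protein stability index of tFT-peptide fusion in deletion strain of DAS1 is given: PSI is a weighted mean of each variant's read distribution over the sorted stability bins, computed only for variants having over 10 reads in total.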
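Wherever protein stability index of tFT-peptide fusion in wild type is given: PSI derived as read-weighted mean over the 8 sorting bins, only variants exceeding 10 total reads kept, mCherry placed adjacent to the peptide and sfGFP distal.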

## ADWRVGLWRGAS
Saccharomyces cerevisiae [1]
  protein stability index: 0.519
Saccharomyces cerevisiae [2]
  protein stability index: 0.729

## APWRVGLWRGAS
Saccharomyces cerevisiae [1]
  protein stability index: 0.512
Saccharomyces cerevisiae [2]
  protein stability index: 0.701

## ARERVGLWRGAS
Saccharomyces cerevisiae [1]
  protein stability index: 0.609
Saccharomyces cerevisiae [2]
  protein stability index: 0.726

## ARLRVGLWRGAS
Saccharomyces cerevisiae [1]
  protein stability index: 0.581
Saccharomyces cerevisiae [2]
  protein stability index: 0.69

## ARNRVGLWRGAS
Saccharomyces cerevisiae [1]
  protein stability index: 0.606
Saccharomyces cerevisiae [2]
  protein stability index: 0.693

## ARWNVGLWRGAS
Saccharomyces cerevisiae [1]
  protein stability index: 0.322
Saccharomyces cerevisiae [2]
  protein stability index: 0.662

## ARWRLGLWRGAS
Saccharomyces cerevisiae [1]
  protein stability index: 0.458
Saccharomyces cerevisiae [2]
  protein stability index: 0.687

## ARWRMGLWRGAS
Saccharomyces cerevisiae [1]
  protein stability index: 0.605
Saccharomyces cerevisiae [2]
  protein stability index: 0.689

## ARWRVGLTRGAS
Saccharomyces cerevisiae [1]
  protein stability index: 0.664
Saccharomyces cerevisiae [2]
  protein stability index: 0.679

## ARWRVGLWAGAS
Saccharomyces cerevisiae [1]
  protein stability index: 0.599
Saccharomyces cerevisiae [2]
  protein stability index: 0.627

## ARWRVGLWGGAS
Saccharomyces cerevisiae [1]
  protein stability index: 0.554
Saccharomyces cerevisiae [2]
  protein stability index: 0.674

## ARWRVGLWIGAS
Saccharomyces cerevisiae [1]
  protein stability index: 0.367
Saccharomyces cerevisiae [2]
  protein stability index: 0.572

## ARWRVGLWRGAD
Saccharomyces cerevisiae [1]
  protein stability index: 0.694
Saccharomyces cerevisiae [2]
  protein stability index: 0.672

## ARWRVGLWRGAR
Saccharomyces cerevisiae [1]
  protein stability index: 0.663
Saccharomyces cerevisiae [2]
  protein stability index: 0.666

## ARWRVGLWRGAY
Saccharomyces cerevisiae [1]
  protein stability index: 0.598
Saccharomyces cerevisiae [2]
  protein stability index: 0.682

## ARWRVGLWRGHS
Saccharomyces cerevisiae [1]
  protein stability index: 0.602
Saccharomyces cerevisiae [2]
  protein stability index: 0.691

## ARWRVGLWRTAS
Saccharomyces cerevisiae [1]
  protein stability index: 0.0835
Saccharomyces cerevisiae [2]
  protein stability index: 0.684

## ARWRVGLWVGAS
Saccharomyces cerevisiae [1]
  protein stability index: 0.468
Saccharomyces cerevisiae [2]
  protein stability index: 0.545

## ARWRVGLYRGAS
Saccharomyces cerevisiae [1]
  protein stability index: 0.683
Saccharomyces cerevisiae [2]
  protein stability index: 0.641

## ARWRVGTWRGAS
Saccharomyces cerevisiae [1]
  protein stability index: 0.535
Saccharomyces cerevisiae [2]
  protein stability index: 0.687

## ARWRVKLWRGAS
Saccharomyces cerevisiae [1]
  protein stability index: 0.357
Saccharomyces cerevisiae [2]
  protein stability index: 0.684

## ARWRVLLWRGAS
Saccharomyces cerevisiae [1]
  protein stability index: 0.4
Saccharomyces cerevisiae [2]
  protein stability index: 0.628

## ASLAASFWRVVG
Saccharomyces cerevisiae [1]
  protein stability index: 0.135
Saccharomyces cerevisiae [2]
  protein stability index: 0.695

## ASWRVGLWRGAS
Saccharomyces cerevisiae [1]
  protein stability index: 0.516
Saccharomyces cerevisiae [2]
  protein stability index: 0.703

## AVVYLSCVACIN
Saccharomyces cerevisiae [1]
  protein stability index: 0.0207
Saccharomyces cerevisiae [2]
  protein stability index: 0.038

## CKSCGYKFRTNN
Saccharomyces cerevisiae [1]
  protein stability index: 0.276
Saccharomyces cerevisiae [2]
  protein stability index: 0.697

## CTSCCYKFRTNN
Saccharomyces cerevisiae [1]
  protein stability index: 0.211
Saccharomyces cerevisiae [2]
  protein stability index: 0.661

## CTSCEYKFRTNN
Saccharomyces cerevisiae [1]
  protein stability index: 0.457
Saccharomyces cerevisiae [2]
  protein stability index: 0.684

## CTSCGQKFRTNN
Saccharomyces cerevisiae [1]
  protein stability index: 0.448
Saccharomyces cerevisiae [2]
  protein stability index: 0.686

## CTSCGYEFRTNN
Saccharomyces cerevisiae [1]
  protein stability index: 0.64
Saccharomyces cerevisiae [2]
  protein stability index: 0.675

## CTSCGYHFRTNN
Saccharomyces cerevisiae [1]
  protein stability index: 0.258
Saccharomyces cerevisiae [2]
  protein stability index: 0.695

## CTSCGYKFITNN
Saccharomyces cerevisiae [1]
  protein stability index: 0.325
Saccharomyces cerevisiae [2]
  protein stability index: 0.709

## CTSCGYKFRGNN
Saccharomyces cerevisiae [1]
  protein stability index: 0.682
Saccharomyces cerevisiae [2]
  protein stability index: 0.686

## CTSCGYKFRHNN
Saccharomyces cerevisiae [1]
  protein stability index: 0.555
Saccharomyces cerevisiae [2]
  protein stability index: 0.705

## CTSCGYKFRKNN
Saccharomyces cerevisiae [1]
  protein stability index: 0.23
Saccharomyces cerevisiae [2]
  protein stability index: 0.692

## CTSCGYKFRTNNI
Saccharomyces cerevisiae [1]
  protein stability index: 0.716
Saccharomyces cerevisiae [2]
  protein stability index: 0.699

## CTSCGYKFRTNNP
Saccharomyces cerevisiae [1]
  protein stability index: 0.698
Saccharomyces cerevisiae [2]
  protein stability index: 0.69

## CTSCGYKFRTNNR
Saccharomyces cerevisiae [1]
  protein stability index: 0.707
Saccharomyces cerevisiae [2]
  protein stability index: 0.705

## CTSCGYKFRTNNY
Saccharomyces cerevisiae [1]
  protein stability index: 0.677
Saccharomyces cerevisiae [2]
  protein stability index: 0.704

## CTSCGYKFRTPN
Saccharomyces cerevisiae [1]
  protein stability index: 0.689
Saccharomyces cerevisiae [2]
  protein stability index: 0.71

## CTSCGYKFRTRN
Saccharomyces cerevisiae [1]
  protein stability index: 0.534
Saccharomyces cerevisiae [2]
  protein stability index: 0.683

## CTSCGYKFRVNN
Saccharomyces cerevisiae [1]
  protein stability index: 0.282
Saccharomyces cerevisiae [2]
  protein stability index: 0.687

## CTSCGYKFRWNN
Saccharomyces cerevisiae [1]
  protein stability index: 0.49
Saccharomyces cerevisiae [2]
  protein stability index: 0.737

## CTSCGYKFRYNN
Saccharomyces cerevisiae [1]
  protein stability index: 0.369
Saccharomyces cerevisiae [2]
  protein stability index: 0.702

## CTSCGYKFYTNN
Saccharomyces cerevisiae [1]
  protein stability index: 0.374
Saccharomyces cerevisiae [2]
  protein stability index: 0.701

## CTSCGYKHRTNN
Saccharomyces cerevisiae [1]
  protein stability index: 0.582
Saccharomyces cerevisiae [2]
  protein stability index: 0.687

## CTSCGYKWRTNN
Saccharomyces cerevisiae [1]
  protein stability index: 0.153
Saccharomyces cerevisiae [2]
  protein stability index: 0.659

## CTSCGYVFRTNN
Saccharomyces cerevisiae [1]
  protein stability index: 0.196
Saccharomyces cerevisiae [2]
  protein stability index: 0.698
